The values that follow are results of earlier work, collected in publication PMC8400902.

In data set [1] the target is Amyloid beta fibril (Homo sapiens) (UniProt P05067).
Data set [2] concerns the target Amyloid beta (Homo sapiens) (UniProt P05067).
For data set [3] the target is unchanged. This is another data set of the same source.

Where two headings read alike, the source gives them in different places.

Serum amyloid P component, sequence (P02743 20-222): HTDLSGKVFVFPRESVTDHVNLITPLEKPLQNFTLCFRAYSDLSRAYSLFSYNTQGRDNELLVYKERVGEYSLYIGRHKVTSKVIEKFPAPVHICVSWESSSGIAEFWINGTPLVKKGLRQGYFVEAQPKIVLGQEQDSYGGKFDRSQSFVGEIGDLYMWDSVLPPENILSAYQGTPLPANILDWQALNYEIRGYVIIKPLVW
Agrin, sequence (O00468 1864-2068): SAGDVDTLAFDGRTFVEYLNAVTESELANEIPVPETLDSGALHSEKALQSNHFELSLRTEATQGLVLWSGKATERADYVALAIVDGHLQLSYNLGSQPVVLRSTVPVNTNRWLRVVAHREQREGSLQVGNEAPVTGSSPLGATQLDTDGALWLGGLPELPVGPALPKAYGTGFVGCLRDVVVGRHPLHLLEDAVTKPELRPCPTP
Haptoglobin, sequence (P00738 19-160): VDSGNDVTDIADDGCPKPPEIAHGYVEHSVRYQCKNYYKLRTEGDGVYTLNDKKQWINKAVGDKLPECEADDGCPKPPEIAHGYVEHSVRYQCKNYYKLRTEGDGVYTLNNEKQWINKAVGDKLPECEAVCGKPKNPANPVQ

The term Kd denotes a measure of binding affinity in units of concentration. Turning to Agrin (from UniProt O00468), in data set [1], the Kd is 3.5 nM.
For Haptoglobin (from UniProt P00738), the Kd in data set [2] was 300 nM.
Take “Serum amyloid P component (from UniProt P02743)”: the Kd in data set [3] is 6 nM.
